This is an account of results in patent publication US20090304651A1 (published 2009).

Test [1] addresses T1, recombinant human IGF-II (Insulin-like Growth Factor II) (human, UniProt P01344 25-91, biotinylated (Biotinyl-IGF-II, GroPep) where immobilised in SPR, site not stated; not biotinylated in ITC and as SPR analyte).
T1 construct: also called IGF2; IGF-2
The experiment in a line: SPR, IGF-II immobilised, kinetic fit. The procedure: Kinetic analysis by Surface Plasmon Resonance (SPR) was conducted on a BIAcore 3000 biosensor (BIAcore, Uppsala, Sweden) at 25° C. in HBS-EP (10 mM HEPES, pH 7.4, 150 mM NaCl, 3 mM EDTA, 0.005% surfactant P20) at a flow rate of 40 μl/min. […] Kinetic experiments consisted of a two minute injection of analyte followed by a 100 s dissociation phase in running buffer, after which the binding surface was regenerated with a 2 minute injection of 2 M MgCl₂. A blank flow cell was used for in-line reference subtraction of changes due to differences in refractive index of running buffer versus sample and a buffer-only injection was used to subtract instrument noise and drift. Injections were performed in duplicate for each concentration and in a randomised order. Kinetic parameters were determined by global fitting of sensorgrams to a two-state (conformational change) binding model using BIAevaluation software version 4.0.1. In all cases the minor component made an insignificant contribution to the overall affinity and as such only the kinetic parameters of the major binding component were used. For each interaction the dissociation affinity constant (KD) was also calculated by fitting of the response of each concentration at equilibrium to a steady-state affinity model using BIAevaluation. In order to investigate the influence of ionic strength, kinetic experiments were conducted in HBS-EP running buffers containing the desired NaCl concentration. In each case, analyte samples were made up in the appropriate running buffer prior to injection.

The target in test [2] is T1, recombinant human IGF-II (Insulin-like …). In words: ITC. As for the experimental part:
Calorimetric measurements were performed using a VP-ITC microcalorimeter (MicroCal). All solutions were thoroughly degassed before use by stirring under vacuum. […] The sample cell contained either wild type domain 11 (7 uM) or the E1544A mutant (8 μM), also in HBS-E buffer. To correct for the heat effects of dilution and mixing, reaction heats obtained from a control experiment, in which IGF2 was injected into HBS-E, were subtracted. Calorimetric data were analysed using MicroCal ORIGIN software (version 5.0) supplied with the instrument. Thermodynamic parameters were derived by fitting the binding isotherms to a single-site binding model. Values for dissociation affinity constants (KD) were determined from duplicate experiments.
In order to validate the SPR sensorgram data, ITC was used to assess the binding affinity between domain 11 and IGF-II. The affinity of the E1544A mutant was also assessed by ITC in order to confirm whether use of a second technique agreed as to the apparent increase in affinity (FIG. 6 and Table 6). Titrations were performed using 17×15 μl injections of 40 μM IGF-II (after an initial 7.51 injection) into the reaction cell containing wild type domain 11 or the E1544A mutant. […] The two fold differences may be simply accounted for by the fidelity of both techniques.

Substitutions are numbered along the chain they refer to. Names may count otherwise.

T1 sequence (P01344 25-91 limits assumed): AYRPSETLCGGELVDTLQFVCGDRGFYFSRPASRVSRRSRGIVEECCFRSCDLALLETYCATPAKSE

B1: wild type IGF2R domain 11 (amino acids 1511-1650) with C-terminal His6 tag, from Pichia pastoris (receptor)
chain: NEHDDCQVTNPSTGHLFDLSSLSGRAGFTAAYSEKGLVYMSICGENENCPPGVGACFGQTRISVGKANKRLRYVDQVLQLVYKDGSPCPSKSGLSYKSVISFVCRPEAGPTNRPMLISLDKQTCTLFFSWHTPLACEQATHHHHHH
notes: also called WT; wild type domain 11
As to B1, in test [1], the Kd was 102 nM, the koff is 0.053 s⁻¹ and the kon was 525000 M⁻¹ s⁻¹.

B2: IGF2R domain 11 E1544A (amino acids 1511-1650, C-terminal His6 tag, from Pichia pastoris) (receptor)
chain: B1 chain with E34A
Take B2: in test [2], the “relative affinity increase over wild type” value was about 2 fold.
